The values that follow come from patent publication US5541078.

This experiment deals with synthetic peptide 89-122 of Eg 6 (Echinococcus granulosus). Briefly: ELISA on bound peptide, ascites diluted to 1/100 (control).

Take “myeloma ascites (SP2/0) (polyclonal serum or antibody)”: the mean of the optical densities (optical density) came out at 0.12.
